# Where a chain is given by its changes, count along the chain named.
# B1: mAb10998 (antibody, V domains shown)
# VH: EVQLVESGGGLVHPGGSLRLSCAASGLTVSSNYMSWVRQAPGKGLEWVSVIYSGGSTYYADSVKGRFTISRHNSKNTLFLQMNSLRAEDTAVYYCARDRPITGTTLDVWGQGTTVTVSS
# VL: DIQMTQSPSSLFASVGDRVTITCRASQSISSYLNWYQQKPGKAPKLLIYAASSLQSGVPSRFSGSGSGTDFTLTISSLQPEDFAFYYCQQTYSTPPITFGQGTRLEIK
# B2: mAb11006 (antibody, V domains shown)
# VH: EVQLVESGGGLVQPGGSLRLSCAASGFIVSRNYMSWVRQAPGKGLEWVSVIYSGGSTFYADSVKGRFTISRHNSKNTLYLQMNSLKAEDTAVYYCARELRGYFDYWGQGTLVTVSS
# VL: DIQLTQSPSFLSASVGDRVTITCWASQGISSYLAWYQQKPGKAPKLLIYAASTLQSGVPSRFSGSGSGTEFTLTISSLQPEDFATYYCQLLNSYPYTFGQGTKLEIK
# B3: mAb11008 (antibody, V domains shown)
# VH: EVQLVESGGGLVQPGGSLRLSCAASGFTVSSNYMTWVRQAPGKGLEWVSVIYSGGSTFYADSVKGRFTISRHNSENTLYLQMNSLRAEDTAVYYCARDLAAAGTDYWGQGALVTVSS
# VL: B2 VL with E81D, L90H, P95L
# B4: mAb11004 (antibody, V domains shown)
# VH: QVQLVESGGGVVQPGRSLRLSCVASGFTFSIYGMDWVRQAPGKGLEWVAVISYDGSNKYYADSVKGRFTISRDNSKNTLYLQMNSLRPEDTAVYYCAKDREAAADAFDIWGQGTMVTVSS
# VL: DIQMTQSPSSVSASVGDRVTITCRASQGISSWLAWYQQKPGKAPKLLIYAASSLHSGVPSRFSGSGSGTDFTLTISSLQPEDFATYYCQQANSFRLTFGGGTKVEIK
# Biological target: Bt-SARS-CoV-2 Spike Protein (RBD)(R319-F541).hFc (SARS-CoV-2)
# Test: not given
# Details: remark: other sources report otherwise
row,Binder,Binding signal (MFI)
1,B1,467
2,B2,3810
3,B3,4110
4,B4,7620

# Biological target: Bt-SARS-CoV-2 Spike Protein (RBD)(R319-F541).mFc (SARS-CoV-2)
# Test: not given
# Details: remark: other sources report otherwise
row,Binder,Binding signal (MFI)
1,B1,2230
2,B2,1400
3,B3,3050
4,B4,4300

# Biological target: SARS-CoV-2 RBD extracellular domain expressed with a C-terminal myc-myc-hexahistidine tag (SARS-COV-2 RBD-MMH) (SARS-CoV-2)
# Test: not given
# Details: remark: other sources report otherwise
Binder,Kd [nM],t½ [min]
B1,117,0.5
B2,4.1,31.5
B3,59.4,2.9
B4,16.6,3.7

# Biological target: SARS-CoV-2 RBD extracellular domain expressed with a C-terminal human IgG1 (SARS-COV-2 RBD-hFc) (SARS-CoV-2)
# Test: not given
# Details: remark: other sources report otherwise
Binder,Kd [nM],t½ [min]
B1,1.58,22.2
B2,< 0.0532,> 1160
B3,0.715,100
B4,0.191,174

# Biological target: SARS-CoV-2 spike protein receptor binding domain (amino acids Arg319 to Phe541) expressed with the F (SARS-CoV-2)
# Test: not given
# Details: remark: other sources report otherwise
row,Binder,SARS-CoV-2 RBD-hFc Binding to His presented ACE2 (Abs 450 nm)
1,B4,0.211

# Biological target: Human SARS Coronavirus Spike Protein (Receptor Binding Domain) rabbit Fc (Sino 40150-V31B2) (Human SARS Coronavirus), P59594
# Test: Luminex bead assay, antigen on microspheres, antibody supernatant
# Details: remark: other sources report otherwise
row,Binder,Binding signal (MFI)
1,B1,29
2,B2,615
3,B3,120
4,B4,5520

# Biological target: Human SARS Coronavirus Spike Protein (Receptor Binding Domain, His Tag) (Sino 40150-V08B2) (Human SARS Coronavirus), P59594
# Test: as above
# Details: remark: other sources report otherwise
row,Binder,Binding signal (MFI)
1,B1,37
2,B2,667
3,B3,174
4,B4,740

# Biological target: Human SARS Coronavirus Spike S1 Subunit Protein (His Tag) (Sino 40150-V08B1) (Human SARS Coronavirus), P59594
# Test: as above
# Details: remark: other sources report otherwise
row,Binder,Binding signal (MFI)
1,B1,16
2,B2,339
3,B3,31
4,B4,33

# Biological target: MERS-CoV (NCoV/Novel coronavirus) Spike Protein S1 Protein (aa 1-725, His Tag) (Sino 40069-V08B1) (MERS-CoV), K9N5Q8
# Test: as above
# Details: remark: other sources report otherwise
row,Binder,Binding signal (MFI)
1,B1,19
2,B2,18
3,B3,18
4,B4,17

# Biological target: MERS-CoV (NCoV/Novel coronavirus) Spike Protein fragment (RBD, aa 367-606, His Tag) (Sino 40071-V08B1) (MERS-CoV), K9N5Q8
# Test: as above
# Details: remark: other sources report otherwise
row,Binder,Binding signal (MFI)
1,B1,24
2,B2,15
3,B3,20
4,B4,26

# Biological target: SARS-CoV-2 Spike Protein (RBD)(R319-F541).hFc (SARS-CoV-2)
# Test: as above
# Details: remark: other sources report otherwise
row,Binder,Binding signal (MFI)
1,B1,1740
2,B2,3980
3,B3,2570
4,B4,4880

# Biological target: SARS-CoV-2 Spike Protein (RBD)(R319-F541).mFc (SARS-CoV-2)
# Test: as above
# Details: remark: other sources report otherwise
row,Binder,Binding signal (MFI)
1,B1,2230
2,B2,2870
3,B3,4260
4,B4,4580

# Source: patent US20220356230A1
